According to patent publication US20240425587A1 (Alector, published 2024):

How the values were obtained:
[1] = target: human PILRA on the surface of primary human macrophages or monocytes (human, UniProt Q9UKJ1 20-303); assay: cell-based or functional assay
[2] = target: T1, human PILRA, G78 variant, ectopically expressed on 293 cells (human, UniProt Q9UKJ1 20-303); assay: flow cytometry, MFI relative to 293 parental cells
T1 construct: the cells are labelled G78; also called hA G78 OE; hA
Procedure: (§1) Briefly, conditioned media containing antibodies were incubated with 293 cells for 30 min at 4° C., washed twice, and then detected with anti-mouse IgG Alexa 647.

[3] = target: T2, human PILRB, ectopically expressed on 293 cells (human, UniProt Q9UKJ0 20-227); assay: flow cytometry, MFI relative to 293 parental cells
T2 construct: also called hB
T2 sequence (Q9UKJ0 20-227): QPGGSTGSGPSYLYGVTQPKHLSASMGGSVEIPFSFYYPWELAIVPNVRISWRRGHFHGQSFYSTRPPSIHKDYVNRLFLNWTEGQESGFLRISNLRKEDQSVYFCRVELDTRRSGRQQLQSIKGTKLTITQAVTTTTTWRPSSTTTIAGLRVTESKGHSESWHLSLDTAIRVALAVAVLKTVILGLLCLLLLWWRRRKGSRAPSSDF
Procedure: as §1

[4] = target: cynomolgus PILRA, ectopically expressed on 293 cells (cynomolgus monkey); assay: flow cytometry, MFI relative to 293 parental cells
Sequence of cynomolgus PILRA, ectopically expressed on 293 cells (cynomolgus monkey) (chain, as listed by the source): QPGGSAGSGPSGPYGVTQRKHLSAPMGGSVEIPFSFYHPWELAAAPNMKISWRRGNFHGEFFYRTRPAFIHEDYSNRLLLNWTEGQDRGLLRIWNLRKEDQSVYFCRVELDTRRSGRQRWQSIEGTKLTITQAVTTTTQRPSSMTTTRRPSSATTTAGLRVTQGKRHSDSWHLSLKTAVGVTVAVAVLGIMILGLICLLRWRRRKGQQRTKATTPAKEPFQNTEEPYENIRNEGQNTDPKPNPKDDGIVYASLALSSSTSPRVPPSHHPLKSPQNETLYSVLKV
Procedure: as §1

[5] = target: T3, murine PILRA, ectopically expressed on 293 cells (murine, UniProt Q2YFS3 32-302); assay: flow cytometry, MFI relative to 293 parental cells
T3 construct: also called mA
T3 sequence (Q2YFS3 32-302): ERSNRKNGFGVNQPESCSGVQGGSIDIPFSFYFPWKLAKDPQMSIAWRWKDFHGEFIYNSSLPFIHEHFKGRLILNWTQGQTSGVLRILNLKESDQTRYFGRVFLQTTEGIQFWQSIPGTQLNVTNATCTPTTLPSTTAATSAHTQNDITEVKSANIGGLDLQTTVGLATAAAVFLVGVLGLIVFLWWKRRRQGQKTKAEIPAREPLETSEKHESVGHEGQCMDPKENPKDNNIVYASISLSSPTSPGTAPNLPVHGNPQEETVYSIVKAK
Procedure: as §1

[6] = target: T4, murine PILRB, ectopically expressed on 293 cells (murine, UniProt Q2YFS2 29-224); assay: flow cytometry, MFI relative to 293 parental cells
T4 construct: whole, on cells; also called mB
T4 sequence (Q2YFS2 29-224): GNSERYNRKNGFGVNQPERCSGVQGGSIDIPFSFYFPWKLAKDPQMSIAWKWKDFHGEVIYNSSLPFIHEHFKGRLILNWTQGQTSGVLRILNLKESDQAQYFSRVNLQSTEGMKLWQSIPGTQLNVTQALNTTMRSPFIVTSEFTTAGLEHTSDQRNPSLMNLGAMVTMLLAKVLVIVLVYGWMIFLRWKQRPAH
Procedure: as §1

[7] = target: T5, PILRA Fc (soluble human PILRA) (human, UniProt Q9UKJ1 20-197, limits assumed); assay: flow cytometry; PILRA Fc binding to human CD3+ T cells with antibody, relative to PILRA Fc alone
T5 construct: also called soluble PILRA; not shown: Fc part, detected with anti-human IgG
T5 sequence (Q9UKJ1 20-197 limits assumed): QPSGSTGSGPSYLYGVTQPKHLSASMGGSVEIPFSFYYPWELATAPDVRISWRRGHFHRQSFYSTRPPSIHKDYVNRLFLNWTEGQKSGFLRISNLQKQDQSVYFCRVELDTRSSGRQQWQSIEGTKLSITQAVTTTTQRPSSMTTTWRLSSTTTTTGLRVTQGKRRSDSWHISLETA
Procedure: The ability of conditioned media samples containing antibodies to inhibit the binding of PILRA Fc to human CD3+ T cells was assessed. Briefly, conditioned media samples containing antibodies were incubated with 1.25 ug/ml PILRA Fc for 30 min at 4° C. and then added to human T cells. After 30 minutes incubation at 4° C., cells were washed, and bound PILRA Fc was detected with anti-human IgG Alexa 647. Cells were analyzed by flow cytometry on FACS Canto II, and for all cell lines, the amount of PILRA Fc binding (MIFI) and the percentage of PILRA Fc binding in the presence of conditioned media relative to PILRA Fc binding alone was calculated. Several antibodies inhibited binding of PILRA Fc to human T cells, and a few antibodies enhanced PILRA-Fc binding to T cells. Antibodies that show enhancement in this assay may block cis inhibition to promote trans interactions or may allosterically activate to enhance trans interactions without blocking cis.

[8] = target: T1, human PILRA, G78 variant, ectopically …; assay: flow cytometry; NPDC1-mIgGa binding to 293 cells expressing human PILRA G78 with antibody, relative to NPDC1 Fc alone
Procedure: Conditioned media samples containing antibodies (10 ug/ml) were assessed for modulating the binding of Neural Proliferation Differentiation and Control Protein 1 (NPDC1) Fc to 293 cells ectopically expressing human PILRA. Briefly, conditioned media samples containing antibodies were incubated with 293 cells expressing human PILRA for 30 minutes at 4° C., and then 5 μg/ml NPDC1 Fc was added to this mixture. Where the antibodies were generated from phage panning, a NPDC1-hIgG1 ligand was used. Where the antibodies were generated from hybridomas, a NPDC1-mIgGa ligand was used. After 30 minutes incubation at 4° C., cells were washed and cell-bound NPDC1 Fc was detected with anti-human or mouse IgG Alexa 647. Cells were analyzed by flow cytometry on FACS Canto II, and for all cell lines, the percentage of NPDC1 Fc binding in the presence of conditioned media relative to NPDC1 Fc binding alone was calculated. Several antibodies decreased binding of NPDC1 to human PILRA, and a few antibodies enhanced ligand binding to human PILRA. Antibodies that show enhancement in this assay may block cis inhibition to promote trans interactions or may allosterically activate to enhance trans interactions without blocking cis.

[9] = target: T6, human PILRA, c-term His-Avi tag (human, UniProt Q9UKJ1 20-197, limits assumed); assay: SPR (Biacore), antibody captured, PILRA as analyte
T6 construct: not shown: C-terminal His-Avi tag
T6 sequence (Q9UKJ1 20-197 limits assumed): as above
Procedure, shortened: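 Antibodies were captured at 10 μg/ml on an anti-huFc or anti-msFc CM5 surface, and human PILRA was flowed at 33, 100 and 300 nM in HBSTE/0.5% BSA, pH 7.4. The surface was regenerated with 10 mM glycine-HCl, pH 2.1, after each analyte. Curves were double-referenced with buffer injections.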

T1 sequence (Q9UKJ1 other isoform, or with tags, fused parts or gaps mutant): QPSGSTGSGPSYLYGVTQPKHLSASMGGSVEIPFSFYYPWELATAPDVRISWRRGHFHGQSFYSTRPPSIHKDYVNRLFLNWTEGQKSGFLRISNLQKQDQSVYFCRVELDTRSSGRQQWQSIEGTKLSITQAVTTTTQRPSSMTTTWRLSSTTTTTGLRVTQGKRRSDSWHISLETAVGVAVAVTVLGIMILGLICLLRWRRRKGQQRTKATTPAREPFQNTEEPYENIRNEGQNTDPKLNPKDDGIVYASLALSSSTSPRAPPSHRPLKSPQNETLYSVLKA
Sequence of human PILRA on the surface of primary human macrophages or monocytes (Q9UKJ1 20-303): as the sequence (Q9UKJ1 other isoform, or with tags, fused parts or gaps mutant) above, with G59R counted along it

| hPILRA downregulation EC50 [1] | MFIr [2] | MFIr [3] | MFIr [4] | MFIr [5] | MFIr [6] | % Binding [7] | % Binding [8] | Kd [9] | koff [9] | kon [9] | t½ [9] | Binder |
| --- | --- | --- | --- | --- | --- | --- | --- | --- | --- | --- | --- | --- |
| 0.009 µg/mL |  |  |  |  |  |  |  |  |  |  |  | B1 (hIgG4 isotype) (antibody, V domains shown) VH: DVKLVESGGGLVKLGGSLKLSCAASGFTFSSYYMSWVRQTPEKRLEWVAAINSNGDRSYYPDTVKGRFTISRDNAKNTLYLQMSSLKSEDTAFYYCASHGNYYGSPWFAYWGQGTLVTVSA VL: ETTVTQSPASLSVATGEKVTIRCKTSTDIDDDMNWYQQKPGEPPKLLISEGNTLRPGVPSRFSSSGYGTDFVFTIENTLSEDVADYYCLQNDHMPLTFGGGTKLEIK |
|  | 202 | 1.2 | 0.3 | 0.3 | 0.3 | 8.1% | 35.9% |  |  |  |  | C7 (antibody, V domains shown, first hybridoma campaign) VH: QVQLQQSGAELARPGTSVKLSCKASGYIFTDYAISWVKQRTGQGLQWIGEIYPGSDNAYYNENFKGKATLTADKSSNTAYMELRSLTSEDSAVYFCAKWAGSLFDFWGQGTALTVSS VL: DIVMTQSQKFMSTSVGDRVSVTCKASRNVGFNVAWYQQNPGQSPKALIYSASYRYSGVPDRFTGSGSGTDFTLTISDVQSEDLAEYFCHQYNSYPYTFGGGTKLEIR |
|  | 113 | 1.2 | 70.5 | 0.8 | 0.8 | 60% | 158% | 45 nM | 0.0037 s⁻¹ | 81000 M⁻¹ s⁻¹ | 3.2 min | C1 (antibody, V domains shown, first hybridoma campaign) VH: QIQLVQSGPELKKPGETVKISCKASGYTFTTYGMSWVKQAPGKGLKWMGWINTYSGVPTYADDFQGRFAFSLETSASTAYLQINNLKNEDTAPYFCVRDGYAAPYWGQGTLVTVSA VL: NIMMTQSPSSLAVSAGEKVTMRCKSSQSVLYSSNQKNYLAWYQQKPGQSPKLLIYWASTRESGVPDRFTGSGSGTDFTLTISSVQAEDLAVYYCHQYLSSWTFGGGTKLEIK |
| 0.48 µg/mL |  |  |  |  |  |  |  |  |  |  |  | hPA-002 (hIgG4 isotype) (antibody, V domains shown) VH: QVTLQESGPGILQPSQTLSLTCSFSGFSLSTFGMGVGWIRQPSGKGLEWLAHIWWDDDKYYNPALKSRLTISKDTSKNQVFLKIASVDTADIATYYCARVEDYGNPFDYWGQGTTL VL: DIQMNQSPSSLSASLGDTITITCHASQNIHVWLNWYQQKPGNIPKLLIYKASNLHTGVPSRFSGSGSGTGFTVTISSLQPEDIATYYCQQGQSYPLTFGAGTKLELK |
|  | 36.1 | 1.1 | 0.8 | 1 | 0.8 | 82% | 110% | 10.5 nM | 0.0036 s⁻¹ | 340000 M⁻¹ s⁻¹ | 3.3 min | E13 (antibody, V domains shown, first hybridoma campaign) VH: QVQLQQPGAELVMPGASVKLSCKASGYTFTRYWIHWVRQRPGQGLEWIGEIDPSDSYTNHNQKFKDKATLTVDKSSSTAYMQLSSLTSEDSAVYFCANSNYDYWGQGTTLTVSS VL: not shown |
|  | 102 | 1.1 | 2.7 | 0.9 | 0.8 | 66.2% | 177% | 2.2 nM | 0.0038 s⁻¹ | 1.7e+06 M⁻¹ s⁻¹ | 3.1 min | C2 (antibody, V domains shown, first hybridoma campaign) VH: QVQLQQSGAELVRPGASVTLSCKAAGYTFADYEMHWVRQTPVLGLEWIGAIDSEPGRTVYNQKFKSKAILTADKSSSTAYMELRSLTSDDSAVYYCTRRGAFYTNYDFFDYWGQGTTLTVSS VL: not shown |
| 0.4 µg/mL |  |  |  |  |  |  |  |  |  |  |  | A16 (hIgG4 isotype) (antibody, V domains shown) VH: QVQLVQSGAEVKKPGSSVKVSCKASGYNFLNYDVNWVRQAPGQGLEWMGGIIPIFGTANYAQKFQGRVTITADESTSTAYMELSSLRSEDTAVYYCATGVGAGWFDPWGQGTLVTVSS VL: not shown |
| 0.006 µg/mL |  |  |  |  |  |  |  |  |  |  |  | B3 (hIgG4 isotype) (antibody, V domains shown) VH: EVKLVESGGGLVKPGGSLKLSCTASGFTFSNYAMSWVRQTPEKRLEWVASISGGGSTYYPDSVKGRFTIAIDYARNILYLQMSSLRSEDTAIYFCTRGVSYGDYAMDYWGQGTSVTVSS VL: ETTVTQSPASLSMAIGEKVTIRCVTSTDIDDDMNWYQQKPGGPPKLLISEGNTLRPGVPSRFSSSGYGSDFVFTIEDMLSEDVADYYCLQSDNLPLTFGAGTKVELK |
